These results are taken from IntAct's records for PubMed 31515488.

To fix the notation:
B1: Zinc finger protein 165 (Homo sapiens), P49910 (parent)
chain: MATEPKKAAAQNSPEDEGLLIVKIEEEEFIHGQDTCLQRSELLKQELCRQLFRQFCYQDSPGPREALSRLRELCCQWLKPEIHTKEQILELLVLEQFLTILPGDLQAWVHEHYPESGEEAVTILEDLERGTDEAVLQVQAHEHGQEIFQKKVSPPGPALNVKLQPVETKAHFDSSEPQLLWDCDNESENSRSMPKLEIFEKIESQRIISGRISGYISEASGESQDICKSAGRVKRQWEKESGESQRLSSAQDEGFGKILTHKNTVRGEIISHDGCERRLNLNSNEFTHQKSCKHGTCDQSFKWNSDFINHQIIYAGEKNHQYGKSFKSPKLAKHAAVFSGDKTHQCNECGKAFRHSSKLARHQRIHTGERCYECNECGKSFAESSDLTRHRRIHTGERPFGCKECGRAFNLNSHLIRHQRIHTREKPYECSECGKTFRVSSHLIRHFRIHTGEKPYECSECGRAFSQSSNLSQHQRIHMRENLLM
B2: Syntenin-2 (Homo sapiens), Q9H190 (parent)
chain: MSSLYPSLEDLKVDQAIQAQVRASPKMPALPVQATAISPPPVLYPNLAELENYMGLSLSSQEVQESLLQIPEGDSTAVSGPGPGQMVAPVTGYSLGVRRAEIKPGVREIHLCKDERGKTGLRLRKVDQGLFVQLVQANTPASLVGLRFGDQLLQIDGRDCAGWSSHKAHQVVKKASGDKIVVVVRDRPFQRTVTMHKDSMGHVGFVIKKGKIVSLVKGSSAARNGLLTNHYVCEVDGQNVIGLKDKKIMEILATAGNVVTLTIIPSVIYEHMVKKLPPVLLHHTMDHSIPDA
partner: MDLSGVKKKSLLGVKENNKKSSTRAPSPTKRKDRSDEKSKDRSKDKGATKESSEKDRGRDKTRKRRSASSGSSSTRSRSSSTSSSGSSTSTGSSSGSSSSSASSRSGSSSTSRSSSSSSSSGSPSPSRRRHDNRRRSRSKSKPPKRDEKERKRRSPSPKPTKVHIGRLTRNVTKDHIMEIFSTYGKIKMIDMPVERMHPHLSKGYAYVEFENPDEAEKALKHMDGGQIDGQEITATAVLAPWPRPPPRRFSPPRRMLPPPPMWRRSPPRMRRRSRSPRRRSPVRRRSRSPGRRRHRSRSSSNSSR
B3: UV excision repair protein RAD23 homolog B (Homo sapiens), P54727 (parent)
chain: MQVTLKTLQQQTFKIDIDPEETVKALKEKIESEKGKDAFPVAGQKLIYAGKILNDDTALKEYKIDEKNFVVVMVTKPKAVSTPAPATTQQSAPASTTAVTSSTTTTVAQAPTPVPALAPTSTPASITPASATASSEPAPASAAKQEKPAEKPAETPVATSPTATDSTSGDSSRSNLFEDATSALVTGQSYENMVTEIMSMGYEREQVIAALRASFNNPDRAVEYLLMGIPGDRESQAVVDPPQAASTGAPQSSAVAAAAATTTATTTTTSSGGHPLEFLRNQPQFQQMRQIIQQNPSLLPALLQQIGRENPQLLQQISQHQEHFIQMLNEPVQEAGGQGGGGGGGSGGIAEAGSGHMNYIQVTPQEKEAIERLKALGFPEGLVIQAYFACEKNENLAANFLLQQNFDED
partner: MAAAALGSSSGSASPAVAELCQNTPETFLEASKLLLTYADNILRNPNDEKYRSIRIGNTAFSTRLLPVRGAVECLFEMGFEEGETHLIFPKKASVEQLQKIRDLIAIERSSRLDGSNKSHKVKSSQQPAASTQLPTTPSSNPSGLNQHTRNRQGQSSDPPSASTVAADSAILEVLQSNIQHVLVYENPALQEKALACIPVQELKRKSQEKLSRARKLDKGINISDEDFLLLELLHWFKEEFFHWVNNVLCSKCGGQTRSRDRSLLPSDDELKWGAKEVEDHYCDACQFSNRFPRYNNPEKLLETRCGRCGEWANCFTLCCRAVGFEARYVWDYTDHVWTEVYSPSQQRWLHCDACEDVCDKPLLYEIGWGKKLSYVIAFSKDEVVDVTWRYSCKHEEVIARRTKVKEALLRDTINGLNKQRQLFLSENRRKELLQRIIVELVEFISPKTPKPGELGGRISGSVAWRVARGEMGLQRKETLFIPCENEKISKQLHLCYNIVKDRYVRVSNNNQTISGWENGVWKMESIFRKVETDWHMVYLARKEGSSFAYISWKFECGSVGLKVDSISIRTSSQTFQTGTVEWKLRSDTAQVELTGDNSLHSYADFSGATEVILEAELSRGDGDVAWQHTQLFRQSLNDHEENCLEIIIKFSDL

The first experiment covers variants of B1. Conditions: with kat7_human KAT7, O95251.
kat7_human KAT7, O95251, sequence (O95251 whole entry): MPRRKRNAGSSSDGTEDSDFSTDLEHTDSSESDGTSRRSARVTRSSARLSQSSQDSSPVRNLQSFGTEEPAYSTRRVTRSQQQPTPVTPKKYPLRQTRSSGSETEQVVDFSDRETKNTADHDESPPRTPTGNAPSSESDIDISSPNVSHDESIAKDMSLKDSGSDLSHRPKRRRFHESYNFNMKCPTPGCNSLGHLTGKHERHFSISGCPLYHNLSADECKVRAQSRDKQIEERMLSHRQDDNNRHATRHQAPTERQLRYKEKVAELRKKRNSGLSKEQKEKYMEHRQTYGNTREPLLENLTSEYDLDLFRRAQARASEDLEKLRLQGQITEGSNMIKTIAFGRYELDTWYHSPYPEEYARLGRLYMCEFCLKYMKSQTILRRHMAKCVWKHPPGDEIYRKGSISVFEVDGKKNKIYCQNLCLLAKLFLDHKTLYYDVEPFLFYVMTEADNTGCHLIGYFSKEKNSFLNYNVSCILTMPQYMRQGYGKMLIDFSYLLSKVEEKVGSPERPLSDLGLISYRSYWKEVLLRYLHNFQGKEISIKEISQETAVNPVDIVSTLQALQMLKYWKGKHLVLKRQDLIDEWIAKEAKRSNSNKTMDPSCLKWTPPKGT
For R69C, the “effect of a mutation on the interaction” value is reported as “with no effect”.

For the variant N347Y, the “effect of a mutation on the interaction” value is recorded as “with no effect”.

Another experiment covers variants of B1. To be noted: with pdli7_human PDLIM7, Q9NR12.
pdli7_human PDLIM7, Q9NR12, sequence (Q9NR12 whole entry): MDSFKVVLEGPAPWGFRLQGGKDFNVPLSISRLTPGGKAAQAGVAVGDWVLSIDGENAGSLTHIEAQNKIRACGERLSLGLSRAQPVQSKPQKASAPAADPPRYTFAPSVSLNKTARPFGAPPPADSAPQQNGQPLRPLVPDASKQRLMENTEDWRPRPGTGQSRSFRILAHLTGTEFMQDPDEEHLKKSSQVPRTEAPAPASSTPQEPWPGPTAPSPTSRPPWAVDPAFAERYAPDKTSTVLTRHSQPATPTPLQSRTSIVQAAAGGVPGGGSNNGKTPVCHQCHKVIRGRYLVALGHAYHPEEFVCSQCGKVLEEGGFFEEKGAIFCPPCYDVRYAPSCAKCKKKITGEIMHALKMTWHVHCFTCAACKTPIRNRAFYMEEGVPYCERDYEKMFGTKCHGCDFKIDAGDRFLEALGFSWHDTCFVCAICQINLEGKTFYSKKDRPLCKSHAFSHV
As for R69C, the “effect of a mutation on the interaction” value is recorded as “with no effect”.

As for N347Y, the “effect of a mutation on the interaction” value was “with no effect”.

Variants of B1 are the subject of the next experiment. Conditions: with trim1_human MID2, Q9UJV3.
trim1_human MID2, Q9UJV3, sequence (Q9UJV3 whole entry): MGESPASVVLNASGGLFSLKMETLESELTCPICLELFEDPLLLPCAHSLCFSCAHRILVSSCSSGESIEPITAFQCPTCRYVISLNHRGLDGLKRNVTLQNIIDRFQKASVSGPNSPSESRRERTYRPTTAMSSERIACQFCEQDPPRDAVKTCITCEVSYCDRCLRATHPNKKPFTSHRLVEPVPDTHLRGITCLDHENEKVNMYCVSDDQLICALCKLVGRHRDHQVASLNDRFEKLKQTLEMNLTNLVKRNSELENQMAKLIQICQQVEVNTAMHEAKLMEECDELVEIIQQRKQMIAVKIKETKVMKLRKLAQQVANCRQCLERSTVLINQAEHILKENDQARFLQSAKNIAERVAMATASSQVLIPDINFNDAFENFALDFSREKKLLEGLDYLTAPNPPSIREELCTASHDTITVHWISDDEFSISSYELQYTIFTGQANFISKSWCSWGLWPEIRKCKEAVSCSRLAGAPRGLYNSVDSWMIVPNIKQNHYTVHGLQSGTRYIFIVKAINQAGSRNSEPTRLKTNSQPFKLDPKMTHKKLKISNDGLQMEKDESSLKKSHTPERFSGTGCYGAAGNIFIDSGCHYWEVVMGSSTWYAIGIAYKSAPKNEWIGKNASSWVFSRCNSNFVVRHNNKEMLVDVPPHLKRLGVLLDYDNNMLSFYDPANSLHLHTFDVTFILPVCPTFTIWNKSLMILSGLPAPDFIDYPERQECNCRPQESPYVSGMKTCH
As for R69C, the “effect of a mutation on the interaction” value is listed as “with no effect”.

Regarding N347Y, the “effect of a mutation on the interaction” value is “with no effect”.

Variants of B1 are the subject of another experiment. Conditions: with zn446_human ZNF446, Q9NWS9.
zn446_human ZNF446, Q9NWS9, sequence (Q9NWS9 whole entry): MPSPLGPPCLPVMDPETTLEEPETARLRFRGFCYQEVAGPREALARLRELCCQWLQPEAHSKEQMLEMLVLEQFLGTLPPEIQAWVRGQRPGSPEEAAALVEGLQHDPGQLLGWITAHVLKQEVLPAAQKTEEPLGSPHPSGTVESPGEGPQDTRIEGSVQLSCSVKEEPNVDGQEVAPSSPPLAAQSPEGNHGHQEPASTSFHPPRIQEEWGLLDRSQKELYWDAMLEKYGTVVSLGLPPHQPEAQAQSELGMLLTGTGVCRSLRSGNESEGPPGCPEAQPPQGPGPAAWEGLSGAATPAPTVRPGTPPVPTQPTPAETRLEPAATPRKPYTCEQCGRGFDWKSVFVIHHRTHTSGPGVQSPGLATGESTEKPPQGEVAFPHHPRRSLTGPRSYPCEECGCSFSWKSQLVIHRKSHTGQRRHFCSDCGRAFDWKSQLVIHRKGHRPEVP
With R69C, the “effect of a mutation on the interaction” value is “with no effect”.

In the case of N347Y, the “effect of a mutation on the interaction” value is listed as “with no effect”.

The variants in another experiment derive from B2. To be noted: with rnps1_human RNPS1, Q15287.
Regarding G225R, the “effect of a mutation on the interaction” value is listed as “disrupting interaction strength”.

Turning to G242R, the “effect of a mutation on the interaction” value is “disrupting interaction strength”.

As for V182M, the “effect of a mutation on the interaction” value is recorded as “with no effect”.

Variants of B3 are the subject of the next experiment. To be noted: with ngly1_human NGLY1, Q96IV0.
For T269R, the “effect of a mutation on the interaction” value is “with no effect”.
